Measurements: patent US20090311253A1 (AbbVie / Abbott, published 2009)
Where “and” joins values, the source holds several entries; their conditions need not be identical. Equal values may be shown once. Read-outs that look alike come from different tables or passages of the source.

Legend:
[1] = biological target: T1, Recombinant Human TRANCE/RANKL/TNFSF 11 (human, UniProt O14788 69-317); assay: direct bind ELISA
T1 construct: extracellular domain
T1 sequence (looked up): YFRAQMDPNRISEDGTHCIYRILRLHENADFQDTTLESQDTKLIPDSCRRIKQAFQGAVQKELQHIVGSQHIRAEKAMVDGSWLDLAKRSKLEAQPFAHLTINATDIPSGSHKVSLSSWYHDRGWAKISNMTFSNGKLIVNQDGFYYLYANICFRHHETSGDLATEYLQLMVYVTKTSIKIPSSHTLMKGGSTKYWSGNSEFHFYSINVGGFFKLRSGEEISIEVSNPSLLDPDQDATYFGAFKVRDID
Experimental: (§1) Enzyme Linked Immunosorbent Assays to screen for antibodies that bind a desired target antigen were performed as follows. High bind ELISA plates (Corning Costar # 3369, Acton, Mass.) were coated with 100 μL/well of 10 μg/ml of desired target antigen (R&D Systems, Minneapolis, Minn.) or desired target antigen extra-cellular domain/FC fusion protein (R&D Systems, Minneapolis, Minn.) or monoclonal mouse anti-polyhistidine antibody (R&D Systems # MAB050, Minneapolis, Minn.) in phosphate buffered saline (10×PBS, Abbott Bioresearch Center, Media Prep# MPS-073, Worcester, Mass.) overnight at 4° C. Plates were washed four times with PBS containing 0.02% Tween 20. Plates were blocked by the addition of 300 μL/well blocking solution (non-fat dry milk powder, various retail suppliers, diluted to 2% in PBS) for ½ hour at room temperature. Plates were washed four times after blocking with PBS containing 0.02% Tween 20.
(§2) Plates were washed 4 times with PBS containing 0.02% Tween 20.
(§3) One hundred microliters of enhanced TMB solution (Neogen Corp. #308177, K Blue, Lexington, Ky.) was added to each well and incubated for 10 minutes at room temperature. The reaction was stopped by the addition of 50 μL 1N sulphuric acid. Plates were read spectrophotometrically at a wavelength of 450 nm.

Recombinant Human IL-1β [2] = biological target: T2, Recombinant Human IL-1β (human, UniProt P01584 117-269); assay: direct bind ELISA
T2 construct: also called IL-1b; IL-1B

IL-1α = biological target: T3, IL-1α (UniProt P01583 113-271); assay: direct bind ELISA
T3 construct: also called IL-1alpha; IL-1a
T3 sequence (looked up): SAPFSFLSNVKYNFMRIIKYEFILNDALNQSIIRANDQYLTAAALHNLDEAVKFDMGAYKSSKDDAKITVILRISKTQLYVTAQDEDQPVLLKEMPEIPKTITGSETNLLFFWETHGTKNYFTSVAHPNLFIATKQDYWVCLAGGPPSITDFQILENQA

Recombinant Human IL-1β [3] = biological target: T2, Recombinant Human IL-1β; assay: Biacore SPR
Experimental: (§4) The BIACORE assay (Biacore, Inc, Piscataway, N.J.) determines the affinity of antibodies or DVD-Ig with kinetic measurements of on-rate and off-rate constants. Binding of antibodies or DVD-Ig to a target antigen (for example, a purified recombinant target antigen) is determined by surface plasmon resonance-based measurements with a BiacoreR 1000 or 3000 instrument (Biacore® AB, Uppsala, Sweden) using running HBS-EP (10 mM HEPES [pH 7.4], 150 mM NaCl, 3 mM EDTA, and 0.005% surfactant P20) at 25° C. All chemicals are obtained from Biacore® AB (Uppsala, Sweden) or otherwise from a different source as described in the text. For example, approximately 5000 RU of goat anti-mouse IgG, (Fcγ), fragment specific polyclonal antibody (Pierce Biotechnology Inc, Rockford, Ill.) diluted in 10 mM sodium acetate (pH 4.5) is directly immobilized across a CM5 research grade biosensor chip using a standard amine coupling kit according to manufacturer's instructions and procedures at 25 μg/ml. Unreacted moieties on the biosensor surface are blocked with ethanolamine. Modified carboxymethyl dextran surface in flowcell 2 and 4 is used as a reaction surface. Unmodified carboxymethyl dextran without goat anti-mouse IgG in flow cell 1 and 3 is used as the reference surface. For kinetic analysis, rate equations derived from the 1:1 Langmuir binding model are fitted simultaneously to association and dissociation phases of all eight injections (using global fit analysis) with the use of Biaevaluation 4.0.1 software. Purified antibodies or DVD-Ig are diluted in HEPES-buffered saline for capture across goat anti-mouse IgG specific reaction surfaces. Antibodies or DVD-Ig to be captured as a ligand (25 μg/ml) are injected over reaction matrices at a flow rate of 5 μl/min. The association and dissociation rate constants, kₒₙ (M⁻¹s⁻¹) and koff (s⁻¹) are determined under a continuous flow rate of 25 μl/min. Rate constants are derived by making kinetic binding measurements at different antigen concentrations ranging from […]. The equilibrium dissociation constant (M) of the reaction between antibodies or DVD-Igs and the target antigen is then calculated from the kinetic rate constants by the following formula: KD=koff/kₒₙ. Binding is recorded as a function of time and kinetic rate constants are calculated.

Recombinant Human IL-1β [4] = biological target: T2, Recombinant Human IL-1β; assay: direct bind ELISA; remark: listed apart in the source
Experimental: as §1, §2, §3

[5] = biological target: T1, Recombinant Human TRANCE/RANKL/TNFSF 11; assay: Biacore SPR
Experimental: as §4

Recombinant Human IL-1β [6] = biological target: T2, Recombinant Human IL-1β; assay: cell-based or functional assay

B1: DVD166 (bispecific antibody, human IgG1, kappa)
heavy: not shown
light: EIVLTQSPGTLSLSPGERATLSCRASQSVRGRYLAWYQQKPGQAPRLLIYGASSRATGIPDRFSGSGSGTDFTLTISRLEPEDFAVFYCQQYGSSPRTFGQGTKVEIKRTVAAPQIVLSQSPAILSPSPGEKVTMTCRASSSVSYIHWFQQKPGSSPKPWIYATSNLASGVPVRFSGSGSGTSYSLTISRVEAEDAATYYCQQWTSNPPTFGGGTKLEIKRTVAAPSVFIFPPSDEQLKSGTASVVCLLNNFYPREAKVQWKVDNALQSGNSQESVTEQDSKDSTYSLSSTLTLSKADYEKHKVYACEVTHQGLSSPVTKSFNRGEC
notes: vectors V1, V2; also called RANKL and CD-20 DVD-Ig
For B1, the EC50 [1] was 0.12 nM.

B2: DVD374 (bispecific antibody, human IgG1, kappa)
heavy: not shown
light: EIVLTQSPDFQSVTPKEKVTITCRASQSIGSSLHWYQQKPDQSPKLLIKYASQSFSGVPSRFSGSGSGTDFTLTINSLEAEDAAAYYCHQSSSLPFTFGPGTKVDIKRTVAAPSVFIFPPDIQMTQSPSSVSASVGDRVTITCRASQGISSWLAWYQQKPGKAPKLLIYEASNLETGVPSRFSGSGSGSDFTLTISSLQPEDFATYYCQQTSSFLLSFGGGTKVEHKRTVAAPSVFIFPPSDEQLKSGTASVVCLLNNFYPREAKVQWKVDNALQSGNSQESVTEQDSKDSTYSLSSTLTLSKADYEKHKVYACEVTHQGLSSPVTKSFNRGEC
notes: vectors V1, V2
B2 was tested, and the EC50 (Recombinant Human IL-1β [2]) was 6.47 nM and the EC50 (IL-1α) was 8.78 nM.

B3: DVD382 (bispecific antibody, human IgG1, kappa)
heavy: not shown
light: EIVLTQSPDFQSVTPKEKVTITCRASQSIGSSLHWYQQKPDQSPKLLIKYASQSFSGVPSRFSGSGSGTDFTLTINSLEAEDAAAYYCHQSSSLPFTFGPGTKVDIKRTVAAPSVFIFPPDIQMTQSPSSVSASVGDRVTITCRASQGISSWLAWYQQKPGKAPKLLIYEASNLETGVPSRFSGSGSGSDFTLTISSLQPEDFATYYCQQTSSFLLSFGGGTKVEHKRTVAAPSVFIFPPSDEQLKSGTASVVCLLNNFYPREAKVQWKVDNALQSGNSQESVTEQDSKDSTYSLSSTLTLSKADYEKHKVYACEVTHQGLSSPVTKSFNRGEC
notes: vectors V1, V2
B3 gave an EC50 (Recombinant Human IL-1β [2]) of 6.52 nM and an EC50 (IL-1α) of 4.61 nM.

B4: DVD383 (bispecific antibody, human IgG1, kappa)
heavy: not shown
light: DIQMTQSPSSVSASVGDRVTITCRASQGISSWLAWYQQKPGKAPKLLIYEASNLETGVPSRFSGSGSGSDFTLTISSLQPEDFATYYCQQTSSFLLSFGGGTKVEHKRTVAAPSVFIFPPDIQMTQSPSSLSASVGDRVTITCRASGNIHNYLTWYQQTPGKAPKLLIYNAKTLADGVPSRFSGSGSGTDYTFTISSLQPEDIATYYCQHFWSIPYTFGQGTKLQITTVAAPSVFIFPPSDEQLKSGTASVVCLLNNFYPREAKVQWKVDNALQSGNSQESVTEQDSKDSTYSLSSTLTLSKADYEKHKVYACEVTHQGLSSPVTKSFNRGEC
notes: vectors V1, V2
In the case of B4, the EC50 (Recombinant Human IL-1β [2]) is reported as 2620 nM.

B5: DVD379 (bispecific antibody, human IgG1, kappa)
heavy: not shown
light: DIQMTQSPSSVSASVGDRVTITCRASQGISSWLAWYQQKPGKAPKLLIYEASNLETGVPSRFSGSGSGSDFTLTISSLQPEDFATYYCQQTSSFLLSFGGGTKVEHKRTVAAPDIQMTQSPSSLSASVGDRVTITCRASGNIHNYLTWYQQTPGKAPKLLIYNAKTLADGVPSRFSGSGSGTDYTFTISSLQPEDIATYYCQHFWSIPYTFGQGTKLQITTVAAPSVFIFPPSDEQLKSGTASVVCLLNNFYPREAKVQWKVDNALQSGNSQESVTEQDSKDSTYSLSSTLTLSKADYEKHKVYACEVTHQGLSSPVTKSFNRGEC
notes: vectors V1, V2
Work on B5 yielded an EC50 (Recombinant Human IL-1β [2]) of 150 nM.

B6: AB032 (antibody, human IgG1, kappa, V domains shown)
VH: QVQLVESGGGVVQPGRSLRLSCAASGFTFSVYGMNWVRQAPGKGLEWVAIIWYDGDNQYYADSVKGRFTISRDNSKNTLYLQMNGLRAEDTAVYYCARDLRTGPFDYWGQGTLVTVSS
VL: EIVLTQSPDFQSVTPKEKVTITCRASQSIGSSLHWYQQKPDQSPKLLIKYASQSFSGVPSRFSGSGSGTDFTLTINSLEAEDAAAYYCHQSSSLPFTFGPGTKVDIKR
notes: vectors V1 and V2
In the case of B6, the Kd (Recombinant Human IL-1β [3]) is reported as 0.0131 nM, the EC50 (Recombinant Human IL-1β [2]) is reported as 0.91 nM and the EC50 (Recombinant Human IL-1β [4]) is reported as 2.61 nM and 5.27 nM.

B7: DVD377 (bispecific antibody, human IgG1, kappa)
heavy: not shown
light: DIQMTQSPSSVSASVGDRVTITCRASQGISSWLAWYQQKPGKAPKLLIYEASNLETGVPSRFSGSGSGSDFTLTISSLQPEDFATYYCQQTSSFLLSFGGGTKVEHKRTVAAPEIVLTQSPDFQSVTPKEKVTITCRASQSIGSSLHWYQQKPDQSPKLLIKYASQSFSGVPSRFSGSGSGTDFTLTINSLEAEDAAAYYCHQSSSLPFTFGPGTKVDIKRTVAAPSVFIFPPSDEQLKSGTASVVCLLNNFYPREAKVQWKVDNALQSGNSQESVTEQDSKDSTYSLSSTLTLSKADYEKHKVYACEVTHQGLSSPVTKSFNRGEC
notes: vectors V1, V2
Work on B7 yielded an EC50 (Recombinant Human IL-1β [2]) of 165 nM and an EC50 (IL-1α) of 143 nM.

B8: DVD378 (bispecific antibody, human IgG1, kappa)
heavy: not shown
light: EIVLTQSPDFQSVTPKEKVTITCRASQSIGSSLHWYQQKPDQSPKLLIKYASQSFSGVPSRFSGSGSGTDFTLTINSLEAEDAAAYYCHQSSSLPFTFGPGTKVDIKRTVAAPDIQMTQSPSSVSASVGDRVTITCRASQGISSWLAWYQQKPGKAPKLLIYEASNLETGVPSRFSGSGSGSDFTLTISSLQPEDFATYYCQQTSSFLLSFGGGTKVEHKRTVAAPSVFIFPPSDEQLKSGTASVVCLLNNFYPREAKVQWKVDNALQSGNSQESVTEQDSKDSTYSLSSTLTLSKADYEKHKVYACEVTHQGLSSPVTKSFNRGEC
notes: vectors V1, V2
In the case of B8, the EC50 (Recombinant Human IL-1β [2]) is reported as 1.89 nM and the EC50 (IL-1α) is reported as 2.86 nM.

B9: DVD381 (bispecific antibody, human IgG1, kappa)
heavy: not shown
light: DIQMTQSPSSVSASVGDRVTITCRASQGISSWLAWYQQKPGKAPKLLIYEASNLETGVPSRFSGSGSGSDFTLTISSLQPEDFATYYCQQTSSFLLSFGGGTKVEHKRTVAAPSVFIFPPEIVLTQSPDFQSVTPKEKVTITCRASQSIGSSLHWYQQKPDQSPKLLIKYASQSFSGVPSRFSGSGSGTDFTLTINSLEAEDAAAYYCHQSSSLPFTFGPGTKVDIKRTVAAPSVFIFPPSDEQLKSGTASVVCLLNNFYPREAKVQWKVDNALQSGNSQESVTEQDSKDSTYSLSSTLTLSKADYEKHKVYACEVTHQGLSSPVTKSFNRGEC
notes: vectors V1, V2
B9 was tested, and the EC50 (Recombinant Human IL-1β [2]) was 500 nM and the EC50 (IL-1α) was 965 nM.

B10: DVD125 (bispecific antibody, human IgG1, kappa)
heavy: not shown
light: EIVLTQSPDFQSVTPKEKVTITCRASQSIGSSLHWYQQKPDQSPKLLIKYASQSFSGVPSRFSGSGSGTDFTLTINSLEAEDAAAYYCHQSSSLPFTFGPGTKVDIKRTVAAPEIVLTQSPGTLSLSPGERATLSCRASQSVRGRYLAWYQQKPGQAPRLLIYGASSRATGIPDRFSGSGSGTDFTLTISRLEPEDFAVFYCQQYGSSPRTFGQGTKVEIKRTVAAPSVFIFPPSDEQLKSGTASVVCLLNNFYPREAKVQWKVDNALQSGNSQESVTEQDSKDSTYSLSSTLTLSKADYEKHKVYACEVTHQGLSSPVTKSFNRGEC
notes: outer AB032, inner AB018; vectors V1, V2
B10 gave a Kd [5] of 3.5 nM, a koff [5] of 7.45e-05 s⁻¹ and a kon [5] of 21200 M⁻¹ s⁻¹. It also gave a Kd (Recombinant Human IL-1β [3]) of 0.0829 nM, a koff (Recombinant Human IL-1β [3]) of 0.000107 s⁻¹ and a kon (Recombinant Human IL-1β [3]) of 1.29e+06 M⁻¹ s⁻¹. The EC50 [1] was 2.89 nM, the EC50 (Recombinant Human IL-1β [4]) was 4.36 nM and the “IL-1β Neutralization Assay EC50 (MRC5 cells, hIL-8)” value (Recombinant Human IL-1β [6]) was 0.043 nM.
